Laboratory results published in patent US20260069679A1.

Experiments:
[1] = target: SS-L2-LuS (MERS-CoV EMC/2012 spike stem fused to Aquifex aeolicus lumazine synthase); assay: BLI, 1:1 fit
[2] = target: SS-L6-Aferr; assay: BLI, 1:1 fit
[3] = target: SS-L6-LuS; assay: BLI, 1:1 fit
[4] = target: SS\u0394G4Loop-L6-Aferr (MERS-CoV EMC/2012 spike stem fused to human apoferritin); assay: BLI, 1:1 fit
[5] = target: SS\u0394G4Loop-L6-LuS (MERS-CoV EMC/2012 spike stem fused to Aquifex aeolicus lumazine synthase); assay: BLI, 1:1 fit
[6] = target: SS-L2-LuS (MERS-CoV EMC/2012 spike stem fused to Aquifex aeolicus lumazine synthase)
[7] = target: MERS SS Nanoparticle (NP)
[8] = target: MERS SS delG4loop Nanoparticle; assay: BLI sensorgrams, six curves without concentration labels, time axis 0-500 s

| Substance | Kd [1] | kon [1] | Kd [2] | kon [2] | Kd [3] | kon [3] | Kd [4] | kon [4] | Kd [5] | kon [5] | maximum binding [6] | Kd [7] | Kd [8] |
| --- | --- | --- | --- | --- | --- | --- | --- | --- | --- | --- | --- | --- | --- |
| CC40.8 (antibody) | 748 pM | 315000 M⁻¹ s⁻¹ | 1970 pM | 268000 M⁻¹ s⁻¹ | 1850 pM | 219000 M⁻¹ s⁻¹ | 2730 pM | 184000 M⁻¹ s⁻¹ | 2280 pM | 218000 M⁻¹ s⁻¹ | – | – | – |
| G4 (antibody) | 1.78 pM | 270000 M⁻¹ s⁻¹ | 3.02 pM | 155000 M⁻¹ s⁻¹ | 4.6 pM | 133000 M⁻¹ s⁻¹ | 2.82 pM | 229000 M⁻¹ s⁻¹ | 3.47 pM | 147000 M⁻¹ s⁻¹ | 1.3 nm | 1.7 pM | 3 pM |
